Data reported in publication PMC5007465, “Cullin3-KLHL15 ubiquitin ligase mediates CtIP protein turnover to fine-tune DNA-end resection” (Nature Communications, 2016).
Where no end group is shown, it is not given here.

Target: T1, MBP-KLHL15-His (human, UniProt Q96M94 1-604)
T1 construct: KLHL15, human; gene amplified from the pCMV6-KLHL15 vector and subcloned into the pFB-MBP-fusion plasmid; In the pull-downs MBP was kept (coupled to amylose beads); MBP was cleaved only for the protein purified further; also called recombinant MBP-KLHL15; recombinant KLHL15 purified from insect cells; not shown: MBP, N-terminal, kept
T1 sequence (looked up): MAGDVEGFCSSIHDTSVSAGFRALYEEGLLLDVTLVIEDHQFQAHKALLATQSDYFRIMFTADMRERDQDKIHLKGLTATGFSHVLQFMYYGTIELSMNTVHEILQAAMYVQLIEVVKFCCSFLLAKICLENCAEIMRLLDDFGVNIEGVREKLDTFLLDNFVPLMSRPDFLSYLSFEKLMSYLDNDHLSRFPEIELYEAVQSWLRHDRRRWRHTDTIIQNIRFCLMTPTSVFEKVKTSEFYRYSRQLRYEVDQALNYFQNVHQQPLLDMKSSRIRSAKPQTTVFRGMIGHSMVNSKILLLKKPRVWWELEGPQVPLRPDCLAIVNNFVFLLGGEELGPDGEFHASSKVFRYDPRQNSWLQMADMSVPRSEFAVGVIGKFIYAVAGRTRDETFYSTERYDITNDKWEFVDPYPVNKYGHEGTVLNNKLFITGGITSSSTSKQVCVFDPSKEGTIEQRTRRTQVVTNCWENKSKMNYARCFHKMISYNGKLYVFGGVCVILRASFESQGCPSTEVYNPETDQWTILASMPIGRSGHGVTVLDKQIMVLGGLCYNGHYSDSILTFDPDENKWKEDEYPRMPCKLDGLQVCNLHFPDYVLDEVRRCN
Experiment: pull-down; competition: CtIP 15-mer peptide added in the indicated amounts to MBP-KLHL15 on amylose beads with HEK293T lysate
Details: both partners purified

B1: biotinylated 15-mer peptide encompassing CtIP amino acid residues 830–844 (peptide, UniProt Q99708 830-844, looked up)
peptide: KKLASCSRHRFRYIP
modifications: also: biotinylated (position not given here)
notes: CtIP, human, residues 830-844 in the CTD; also called CtIP peptide; CtIP 15-mer peptide; source: synthetic peptide, bought: Bachem AG
- binding result: binds
